Results: patent publication US20210284734A1 (SYMPHOGEN A S, published 2021)

How the values were obtained:
human PD-1 ECD-Fc S57A = target: T1, human PD-1 ECD-Fc S57A (human, UniProt Q15116 21-170); test: SPR, Fab on captured PD-1-Fc;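 also: Alanine-scan PD-1 Fc fusions expressed transiently in ExpiCHO, captured on anti-human IgG Fc surface in IBIS MX96, anti-PD-1 Fab association 15 min, dissociation 30 min, Langmuir 1:1 fit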
T1 construct: not shown: human IgG1 Fc, residues P101-K330

human PD-1 ECD-Fc P72A = target: T2, human PD-1 ECD-Fc P72A (human, UniProt Q15116 21-170); test: SPR, Fab on captured PD-1-Fc;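 also: Alanine-scan PD-1 Fc fusions expressed transiently in ExpiCHO, captured on anti-human IgG Fc surface in IBIS MX96, anti-PD-1 Fab association 15 min, dissociation 30 min, Langmuir 1:1 fit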
T2 construct: not shown: human IgG1 Fc, residues P101-K330

human PD-1 ECD-Fc D85A = target: T3, human PD-1 ECD-Fc D85A (human, UniProt Q15116 21-170); test: SPR, Fab on captured PD-1-Fc;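 also: Alanine-scan PD-1 Fc fusions expressed transiently in ExpiCHO, captured on anti-human IgG Fc surface in IBIS MX96, anti-PD-1 Fab association 15 min, dissociation 30 min, Langmuir 1:1 fit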
T3 construct: not shown: human IgG1 Fc, residues P101-K330

human PD-1 ECD-Fc P156A = target: T4, human PD-1 ECD-Fc P156A (human, UniProt Q15116 21-170); test: SPR, Fab on captured PD-1-Fc;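 also: Alanine-scan PD-1 Fc fusions expressed transiently in ExpiCHO, captured on anti-human IgG Fc surface in IBIS MX96, anti-PD-1 Fab association 15 min, dissociation 30 min, Langmuir 1:1 fit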
T4 construct: not shown: human IgG1 Fc, residues P101-K330

human PD-1 ECD-Fc N66A = target: T5, human PD-1 ECD-Fc N66A (human, UniProt Q15116 21-170); test: SPR, Fab on captured PD-1-Fc
T5 construct: not shown: human IgG1 Fc, residues P101-K330

human PD-1 ECD-Fc K78A = target: T6, human PD-1 ECD-Fc K78A (human, UniProt Q15116 21-170); test: SPR, Fab on captured PD-1-Fc
T6 construct: not shown: human IgG1 Fc, residues P101-K330

human PD-1 ECD-Fc F56A = target: T7, human PD-1 ECD-Fc F56A (human, UniProt Q15116 21-170); test: SPR, Fab on captured PD-1-Fc
T7 construct: not shown: human IgG1 Fc, residues P101-K330

human PD-1 ECD-Fc N58A = target: T8, human PD-1 ECD-Fc N58A (human, UniProt Q15116 21-170); test: SPR, Fab on captured PD-1-Fc
T8 construct: not shown: human IgG1 Fc, residues P101-K330

human PD-1 ECD-Fc S27A = target: T9, human PD-1 ECD-Fc S27A (human, UniProt Q15116 21-170); test: SPR, Fab on captured PD-1-Fc
T9 construct: not shown: human IgG1 Fc, residues P101-K330

human PD-1 ECD-Fc N116A = target: T10, human PD-1 ECD-Fc N116A (human, UniProt Q15116 21-170); test: SPR, Fab on captured PD-1-Fc
T10 construct: not shown: human IgG1 Fc, residues P101-K330

human PD-1 ECD-Fc C93A = target: T11, human PD-1 ECD-Fc C93A (human, UniProt Q15116 21-170); test: SPR, Fab on captured PD-1-Fc
T11 construct: not shown: human IgG1 Fc, residues P101-K330

human PD-1 ECD-Fc S73A = target: T12, human PD-1 ECD-Fc S73A (human, UniProt Q15116 21-170); test: SPR, Fab on captured PD-1-Fc
T12 construct: not shown: human IgG1 Fc, residues P101-K330

human PD-1 ECD-Fc Q167A = target: T13, human PD-1 ECD-Fc Q167A (human, UniProt Q15116 21-170); test: SPR, Fab on captured PD-1-Fc
T13 construct: label printed under 'Rat mutation', values in r90; not shown: human IgG1 Fc, residues P101-K330

human PD-1 ECD-Fc A149G = target: T14, human PD-1 ECD-Fc A149G (human, UniProt Q15116 21-170); test: SPR, Fab on captured PD-1-Fc
T14 construct: not shown: human IgG1 Fc, residues P101-K330

human PD-1 ECD-Fc N102A = target: T15, human PD-1 ECD-Fc N102A (human, UniProt Q15116 21-170); test: SPR, Fab on captured PD-1-Fc
T15 construct: not shown: human IgG1 Fc, residues P101-K330

human PD-1 ECD-Fc P101A = target: T16, human PD-1 ECD-Fc P101A (human, UniProt Q15116 21-170); test: SPR, Fab on captured PD-1-Fc
T16 construct: not shown: human IgG1 Fc, residues P101-K330

human PD-1 ECD-Fc D48A = target: T17, human PD-1 ECD-Fc D48A (human, UniProt Q15116 21-170); test: SPR, Fab on captured PD-1-Fc
T17 construct: not shown: human IgG1 Fc, residues P101-K330

human PD-1 ECD-Fc S87A = target: T18, human PD-1 ECD-Fc S87A (human, UniProt Q15116 21-170); test: SPR, Fab on captured PD-1-Fc
T18 construct: not shown: human IgG1 Fc, residues P101-K330

human PD-1 ECD-Fc T76A = target: T19, human PD-1 ECD-Fc T76A (human, UniProt Q15116 21-170); test: SPR, Fab on captured PD-1-Fc
T19 construct: not shown: human IgG1 Fc, residues P101-K330

human PD-1 ECD-Fc E136A = target: T20, human PD-1 ECD-Fc E136A (human, UniProt Q15116 21-170); test: SPR, Fab on captured PD-1-Fc
T20 construct: not shown: human IgG1 Fc, residues P101-K330

human PD-1 ECD-Fc T59A = target: T21, human PD-1 ECD-Fc T59A (human, UniProt Q15116 21-170); test: SPR, Fab on captured PD-1-Fc
T21 construct: not shown: human IgG1 Fc, residues P101-K330

human PD-1 ECD-Fc P89A = target: T22, human PD-1 ECD-Fc P89A (human, UniProt Q15116 21-170); test: SPR, Fab on captured PD-1-Fc
T22 construct: not shown: human IgG1 Fc, residues P101-K330

human PD-1 ECD-Fc A163G = target: T23, human PD-1 ECD-Fc A163G (human, UniProt Q15116 21-170); test: SPR, Fab on captured PD-1-Fc
T23 construct: not shown: human IgG1 Fc, residues P101-K330

human PD-1 ECD-Fc V44A = target: T24, human PD-1 ECD-Fc V44A (human, UniProt Q15116 21-170); test: SPR, Fab on captured PD-1-Fc
T24 construct: not shown: human IgG1 Fc, residues P101-K330

human PD-1 ECD-Fc Q133A = target: T25, human PD-1 ECD-Fc Q133A (human, UniProt Q15116 21-170); test: SPR, Fab on captured PD-1-Fc
T25 construct: not shown: human IgG1 Fc, residues P101-K330

human PD-1 ECD-Fc P83A = target: T26, human PD-1 ECD-Fc P83A (human, UniProt Q15116 21-170); test: SPR, Fab on captured PD-1-Fc
T26 construct: not shown: human IgG1 Fc, residues P101-K330

human PD-1 ECD-Fc E61A = target: T27, human PD-1 ECD-Fc E61A (human, UniProt Q15116 21-170); test: SPR, Fab on captured PD-1-Fc
T27 construct: not shown: human IgG1 Fc, residues P101-K330

[1] = target: T28, human PD-1 ECD Fc fusion, wild-type (human, UniProt Q15116 21-170); test: SPR, Fab on captured wild-type PD-1-Fc; row head prints (nM), values evidently in M
T28 construct: also called Hu PD-1 ECD wild-type; hu PD-1 ECD; not shown: human IgG1 Fc, residues P101-K330
T28 sequence (Q15116 21-170): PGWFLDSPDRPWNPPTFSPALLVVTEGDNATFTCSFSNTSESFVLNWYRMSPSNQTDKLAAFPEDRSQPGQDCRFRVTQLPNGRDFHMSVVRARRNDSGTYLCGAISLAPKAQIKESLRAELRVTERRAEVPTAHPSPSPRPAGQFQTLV

T24 sequence (Q15116 21-170 V44A): as the sequence (Q15116 21-170) above, with V24A counted along it
T23 sequence (Q15116 21-170 A163G): as the sequence (Q15116 21-170) above, with A143G counted along it
T7 sequence (Q15116 21-170 F56A): as the sequence (Q15116 21-170) above, with F36A counted along it
T15 sequence (Q15116 21-170 N102A): as the sequence (Q15116 21-170) above, with N82A counted along it
T5 sequence (Q15116 21-170 N66A): as the sequence (Q15116 21-170) above, with N46A counted along it
T12 sequence (Q15116 21-170 S73A): as the sequence (Q15116 21-170) above, with S53A counted along it
T25 sequence (Q15116 21-170 Q133A): as the sequence (Q15116 21-170) above, with Q113A counted along it
T4 sequence (Q15116 21-170 P156A): as the sequence (Q15116 21-170) above, with P136A counted along it
T27 sequence (Q15116 21-170 E61A): as the sequence (Q15116 21-170) above, with E41A counted along it
T19 sequence (Q15116 21-170 T76A): as the sequence (Q15116 21-170) above, with T56A counted along it
T6 sequence (Q15116 21-170 K78A): as the sequence (Q15116 21-170) above, with K58A counted along it
T22 sequence (Q15116 21-170 P89A): as the sequence (Q15116 21-170) above, with P69A counted along it
T11 sequence (Q15116 21-170 C93A): as the sequence (Q15116 21-170) above, with C73A counted along it
T26 sequence (Q15116 21-170 P83A): as the sequence (Q15116 21-170) above, with P63A counted along it
T18 sequence (Q15116 21-170 S87A): as the sequence (Q15116 21-170) above, with S67A counted along it
T21 sequence (Q15116 21-170 T59A): as the sequence (Q15116 21-170) above, with T39A counted along it
T10 sequence (Q15116 21-170 N116A): as the sequence (Q15116 21-170) above, with N96A counted along it
T20 sequence (Q15116 21-170 E136A): as the sequence (Q15116 21-170) above, with E116A counted along it
T2 sequence (Q15116 21-170 P72A): as the sequence (Q15116 21-170) above, with P52A counted along it
T14 sequence (Q15116 21-170 A149G): as the sequence (Q15116 21-170) above, with A129G counted along it
T17 sequence (Q15116 21-170 D48A): as the sequence (Q15116 21-170) above, with D28A counted along it
T9 sequence (Q15116 21-170 S27A): as the sequence (Q15116 21-170) above, with S7A counted along it
T13 sequence (Q15116 21-170 Q167A): as the sequence (Q15116 21-170) above, with Q147A counted along it
T1 sequence (Q15116 21-170 S57A): as the sequence (Q15116 21-170) above, with S37A counted along it

Row | KD mutant/KD wild-type (human PD-1 ECD-Fc S57A) [ratio] | KD mutant/KD wild-type (human PD-1 ECD-Fc P72A) [ratio] | KD mutant/KD wild-type (human PD-1 ECD-Fc D85A) [ratio] | KD mutant/KD wild-type (human PD-1 ECD-Fc P156A) [ratio] | KD mutant/KD wild-type (human PD-1 ECD-Fc N66A) [ratio] | KD mutant/KD wild-type (human PD-1 ECD-Fc K78A) [ratio] | KD mutant/KD wild-type (human PD-1 ECD-Fc F56A) [ratio] | KD mutant/KD wild-type (human PD-1 ECD-Fc N58A) [ratio] | KD mutant/KD wild-type (human PD-1 ECD-Fc S27A) [ratio] | KD mutant/KD wild-type (human PD-1 ECD-Fc N116A) [ratio] | KD mutant/KD wild-type (human PD-1 ECD-Fc C93A) [ratio] | KD mutant/KD wild-type (human PD-1 ECD-Fc S73A) [ratio] | KD mutant/KD wild-type (human PD-1 ECD-Fc Q167A) [ratio] | KD mutant/KD wild-type (human PD-1 ECD-Fc A149G) [ratio] | KD mutant/KD wild-type (human PD-1 ECD-Fc N102A) [ratio] | KD mutant/KD wild-type (human PD-1 ECD-Fc P101A) [ratio] | KD mutant/KD wild-type (human PD-1 ECD-Fc D48A) [ratio] | KD mutant/KD wild-type (human PD-1 ECD-Fc S87A) [ratio] | KD mutant/KD wild-type (human PD-1 ECD-Fc T76A) [ratio] | KD mutant/KD wild-type (human PD-1 ECD-Fc T59A) [ratio] | Binder | other results
1 | 1 | 1.8 | 1.6 | 1.1 | 2.1 | 0.7 | 0.5 | 0.7 | 0.8 | 0.8 | 0.9 | 0.5 | 1 | 1 | 0.6 | 1 | 0.6 | 0.9 | 0.3 | 1 | 12865.17150 Fab (Fab, V domains shown, monomeric Fab fragment) VH: EVQLLESGGGLVQPGGSLRLSCAASGFDFSDHGMQWVRQAPGKGLEYVGVIDTTGRYTYYAPAVKGRATISRDNSKNTLYLQMNSLRAEDTAVYYCAKTTCVGGYLCNTVGSIDAWGQGTLVTVSS VL: SYELTQDPAVSVALGQTVRITCSGGGSSSYYGWYQQKPGQAPVTVIYDDTNRPSGIPDRFSGSSSGNTASLTITGAQAEDEADYYCGGYEGSSHAGIFGSGTKVTVL | binding result (human PD-1 ECD-Fc E136A): no binding (tested: 1 nM to 50 nM); KD mutant/KD wild-type (human PD-1 ECD-Fc P89A): 0.9 ratio; KD mutant/KD wild-type (human PD-1 ECD-Fc A163G): 1.1 ratio; KD mutant/KD wild-type (human PD-1 ECD-Fc V44A): 0.8 ratio; KD mutant/KD wild-type (human PD-1 ECD-Fc Q133A): 1.4 ratio; KD mutant/KD wild-type (human PD-1 ECD-Fc P83A): 0.8 ratio; KD mutant/KD wild-type (human PD-1 ECD-Fc E61A): 1.1 ratio
2 | 1.1 | 1 | 0.9 | 1.5 | 1 | 1.1 | 0.8 | 1 | 1.1 | 0.9 | 1.1 | 0.9 | 0.9 | 1 | 0.7 | 0.9 | 2.4 | 1 | 1.2 | 0.9 | 13112.15380 Fab (Fab, V domains shown) VH: EVQLLESGGGLVQPGGSLRLSCAASGFTFSSYNMFWVRQAPGKGLEFVAEISGSNTGSRTWYAPAVKGRATISRDNSKNTLYLQMNSLRAEDTAVYYCAKSIYGGYCAGGYSCGVGLIDAWGQGTLVTVSS VL: SYELTQDPAVSVALGQTVRITCSGGSSDYYGWFQQKPGQAPVTVIYYNNKRPSDIPDRFSGSSSGNTASLTITGAQAEDEADYYCGNADSSVGVFGSGTKVTVL | KD mutant/KD wild-type (human PD-1 ECD-Fc E136A): 1 ratio; KD mutant/KD wild-type (human PD-1 ECD-Fc P89A): 0.9 ratio; KD mutant/KD wild-type (human PD-1 ECD-Fc A163G): 1.1 ratio; KD mutant/KD wild-type (human PD-1 ECD-Fc V44A): 9.9 ratio; KD mutant/KD wild-type (human PD-1 ECD-Fc Q133A): 0.9 ratio; KD mutant/KD wild-type (human PD-1 ECD-Fc P83A): 0.9 ratio; KD mutant/KD wild-type (human PD-1 ECD-Fc E61A): 1 ratio
3 | 1.2 | 1.1 | 2.5 | 1 | 2.2 | 2.6 | 1.5 | 1.3 | 0.8 | 1.4 | 1.2 | 0.9 | 0.8 | 0.8 | 1.5 | 1.1 | 1 | 1.3 | 1.4 | 0.9 | 12819.17149 Fab (Fab, V domains shown, monomeric Fab fragment) VH: EVQLLESGGGLVQPGGSLRLSCAASGFTFTRYDMVWVRQAPGKGLEWVAGIGDSNKMTRYAPAVKGRATISRDNSKNTLYLQMNSLRAEDTAVYYCAKGSCIACWDEAGRIDAWGQGTLVTVSS VL: SYELTQDPAVSVALGQTVRITCSGGGSYDGSSYYGWYQQKPGQAPVTVIYNNNNRPSDIPDRFSGSSSGNTASLTITGAQAEDEADYYCGSYDRPETNSDYVGMFGSGTKVTVL | KD mutant/KD wild-type (human PD-1 ECD-Fc E136A): 0.8 ratio; KD mutant/KD wild-type (human PD-1 ECD-Fc P89A): 1.1 ratio; KD mutant/KD wild-type (human PD-1 ECD-Fc A163G): 1 ratio; KD mutant/KD wild-type (human PD-1 ECD-Fc V44A): 1.4 ratio; KD mutant/KD wild-type (human PD-1 ECD-Fc Q133A): 0.7 ratio; KD mutant/KD wild-type (human PD-1 ECD-Fc P83A): 1.5 ratio; KD mutant/KD wild-type (human PD-1 ECD-Fc E61A): 1.2 ratio; Kd [1]: 0.0268 nM
